These results are taken from patent publication US20110192416A1.

The target in this assay is human hair (keratin-containing material) (human). Briefly: Hair adherence test: His-tagged protein incubated with cut human hair, detected with anti-poly-histidine peroxidase conjugate and TMB; buffer background 0.05.

For the substance “comparable protein YaaD of B. subtilis with a His-tag (from UniProt P37527 1-294)”, the absorption at 405 nm worked out at 0.12 A405.
